Consider three molecules from publication PMC6883375, “Enolase From Aspergillus fumigatus Is a Moonlighting Protein That Binds the Human Plasma Complement Proteins Factor H, FHL-1, C4BP, and Plasminogen” (Frontiers in Immunology, 2019).

In test [1] the target is Aspergillus fumigatus enolase (AfEno1), recombinant His-tagged (Aspergillus fumigatus) (UniProt Q96X30). Description: BLI; His-tagged AfEno1 on Ni-NTA biosensors; factor H, C4BP or plasminogen as analyte; DPBS with 0.001% gelatin, RT; association 250 s, dissociation 250 s; 1:1 model; heat inactivated regulators as non-binding control.
The target of test [2] is T1, human C4b binding protein (C4BP) (human, UniProt P04003 49-597; P20851 18-252).
T1 construct: also called NHS-derived C4BP; plasma-derived C4BP; source: bought: CompTech (purified human C4BP); also in normal human serum (NHS); copies: 7 + 1
T1 sequence 1: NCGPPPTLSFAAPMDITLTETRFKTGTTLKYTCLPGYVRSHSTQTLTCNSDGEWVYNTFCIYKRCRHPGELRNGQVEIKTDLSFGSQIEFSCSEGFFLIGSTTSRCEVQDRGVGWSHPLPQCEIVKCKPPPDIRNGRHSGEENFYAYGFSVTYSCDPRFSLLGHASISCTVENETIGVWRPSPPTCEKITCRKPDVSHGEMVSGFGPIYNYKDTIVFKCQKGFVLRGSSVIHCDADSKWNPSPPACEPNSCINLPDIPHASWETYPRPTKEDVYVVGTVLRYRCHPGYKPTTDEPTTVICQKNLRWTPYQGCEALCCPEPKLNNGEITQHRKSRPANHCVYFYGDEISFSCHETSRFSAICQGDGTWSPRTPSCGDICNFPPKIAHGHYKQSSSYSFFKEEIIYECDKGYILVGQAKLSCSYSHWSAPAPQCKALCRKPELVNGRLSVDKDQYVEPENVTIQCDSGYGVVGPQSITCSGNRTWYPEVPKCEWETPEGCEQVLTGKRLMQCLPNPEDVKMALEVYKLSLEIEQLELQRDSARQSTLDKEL
T1 sequence 2: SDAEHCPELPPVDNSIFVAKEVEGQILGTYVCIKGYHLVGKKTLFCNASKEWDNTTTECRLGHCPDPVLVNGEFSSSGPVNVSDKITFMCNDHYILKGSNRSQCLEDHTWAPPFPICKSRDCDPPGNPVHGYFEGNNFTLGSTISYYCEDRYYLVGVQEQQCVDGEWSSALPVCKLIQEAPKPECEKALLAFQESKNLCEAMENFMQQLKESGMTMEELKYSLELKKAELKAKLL
The test is described as above. As to conditions: both partners purified.

Test [3] has as its target T2, human factor H (human, UniProt P08603 19-1231).
T2 construct: complement factor H, human, 150-kDa plasma protein of 20 short conserved repeats (SCRs); also called NHS-derived factor H; serum-derived Factor H; source: bought: CompTech (purified human factor H); also in normal human serum (NHS)
The test is described as above. As to conditions: both partners purified.

The target of test [4] is T2, human factor H. Description: not stated; data not shown; method and format not told.

T2 sequence (P08603 19-1231): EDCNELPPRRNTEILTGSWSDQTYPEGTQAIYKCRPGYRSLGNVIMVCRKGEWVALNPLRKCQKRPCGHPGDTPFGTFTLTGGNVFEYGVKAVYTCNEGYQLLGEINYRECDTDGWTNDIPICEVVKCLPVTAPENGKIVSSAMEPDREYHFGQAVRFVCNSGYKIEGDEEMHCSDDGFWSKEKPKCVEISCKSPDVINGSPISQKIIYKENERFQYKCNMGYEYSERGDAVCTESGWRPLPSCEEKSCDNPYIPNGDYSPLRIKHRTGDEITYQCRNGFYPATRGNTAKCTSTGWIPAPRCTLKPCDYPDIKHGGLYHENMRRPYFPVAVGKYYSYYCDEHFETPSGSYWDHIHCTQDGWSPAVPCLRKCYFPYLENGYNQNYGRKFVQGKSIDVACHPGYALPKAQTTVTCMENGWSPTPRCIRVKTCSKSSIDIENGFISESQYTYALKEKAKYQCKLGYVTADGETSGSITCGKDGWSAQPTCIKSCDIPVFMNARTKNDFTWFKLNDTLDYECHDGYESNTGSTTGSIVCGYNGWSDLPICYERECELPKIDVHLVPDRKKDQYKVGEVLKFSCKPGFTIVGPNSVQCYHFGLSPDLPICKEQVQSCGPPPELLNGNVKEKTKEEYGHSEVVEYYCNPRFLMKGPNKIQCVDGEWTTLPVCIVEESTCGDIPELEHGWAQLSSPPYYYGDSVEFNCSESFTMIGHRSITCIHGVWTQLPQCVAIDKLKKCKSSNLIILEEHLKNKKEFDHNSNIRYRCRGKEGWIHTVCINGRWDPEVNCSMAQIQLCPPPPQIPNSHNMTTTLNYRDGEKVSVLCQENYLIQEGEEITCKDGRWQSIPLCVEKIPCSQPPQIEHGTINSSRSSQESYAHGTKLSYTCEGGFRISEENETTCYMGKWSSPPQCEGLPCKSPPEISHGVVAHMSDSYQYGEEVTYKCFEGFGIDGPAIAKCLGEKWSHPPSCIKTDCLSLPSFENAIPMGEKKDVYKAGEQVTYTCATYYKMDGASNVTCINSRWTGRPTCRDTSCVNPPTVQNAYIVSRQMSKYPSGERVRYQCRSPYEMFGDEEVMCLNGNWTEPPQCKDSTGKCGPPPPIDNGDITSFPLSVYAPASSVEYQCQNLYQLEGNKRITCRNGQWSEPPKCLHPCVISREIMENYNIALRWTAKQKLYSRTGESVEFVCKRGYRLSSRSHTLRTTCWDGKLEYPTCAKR

In the case of human plasminogen (natural protein), the Kd (commonly the constant that tells how readily two partners part at equilibrium) in test [1] is 530 nM.

B1: Aspergillus fumigatus enolase (AfEno1), recombinant His-tagged (natural protein)
chain: MPISKIHARSVYDSRGNPTVEVDVVTETGLHRAIVPSGASTGQHEAHELRDGDKTQWGGKGVLKAVKNVNETIGPALIKENIDVKDQSKVDEFLNKLDGTANKSNLGANAILGVSLAVAKAGAAEKGVPLYAHISDLAGTKKPYVLPVPFQNVLNGGSHAGGRLAFQEFMIVPDSAPSFSEALRQGAEVYQKLKALAKKKYGQSAGNVGDEGGVAPDIQTAEEALDLITEAIEQAGYTGKIKIAMDVASSEFYKADVKKYDLDFKNPESDPSKWLTYEQLADLYKSLAAKYPIVSIEDPFAEDDWEAWSYFYKTSDFQIVGDDLTVTNPGRIKKAIELKSCNALLLKVNQIGTLTESIQAAKDSYADNWGVMVSHRSGETEDVTIADIAVGLRSGQIKTGAPCRSERLAKLNQILRIEEELGENAVYAGSKFRTAVNL
notes: enolase (AfEno1, allergen Aspf22) of Aspergillus fumigatus; the gene was cloned with six His residues added at the N-terminus; Vector printed as 'pET 4.1 a'; also called Aspf22; recombinant AfEno1; source: E. coli BL21 (DE3), purified (Ni-NTA, HisTrap); not shown: His6, N-terminal, kept
With B1, the Kd in test [2] came out at 131 nM; with human factor H [3], 528 nM.

B2: Candida albicans Pra1 (pH-regulated antigen 1) (natural protein)
chain: APVTVTRFVDASPTGYDWRADWVKGFPIDSSCNATQYNQLSTGLQEAQLLAEHARDHTLRFGSKSPFFRKYFGNETASAEVVGHFDNVVGADKSSILFLCDDLDDKCKNDGWAGYWRGSNHSDQTIICDLSFVTRRYLTQLCSSGYTVSKSKTNIFWAGDLLHRFWHLKSIGQLVIEHYADTYEEVLELAQENSTYAVRNSNSLIYYALDVYAYDVTIPGEGCNGDGTSYKKSDFSSFEDSDSGSDSGASSTASSSHQHTDSNPSATTDANSHCHTHADGEVHC
notes: pH-regulated antigen 1 (Pra1) of Candida albicans; the construct is not described; also called C. albicans Pra1
As for B2, in the test with human factor H [4], the dissociation constant Kd came to 1.87 nM.
